Experimental data published in paper doi:10.1101/2020.05.16.099382 (bioRxiv, 2020).
Numbering of substitutions follows the chain as printed. Names and notes keep the numbering of the source. Read-outs that look alike come from different tables or passages of the source.

B1: Rubisco activase ('Rca-like' protein) of Nostoc sp. PCC 7120 (natural protein, UniProt P58555 2-414, looked up)
chain: SYYIAPRFLDKLAVHITKNFLNIPGVRVPLILGIHGRKGEGKTFQCELAFEKMGIEVTLISGGELESPDAGDPARLIRLRYRETAELIKVRGKMCVLMINDLDAGAGRFDEGTQYTVNTQLVNATLMNIADNPTDVQLPGSYDSNPIRRVPIIVTGNDFSTLYAPLIRDGRMEKFYWEPNRDDKVGIVGGIFAEDGLSQREIEQLVDTFPKQSIDFFSALRSRIYDIQIRDFIHKVGFERISLRVVNSLEAPPEFKKPDFSLAHLIESGNLVLGEQQRVDNSQLVDEYNRLNRGRGYQTAPPPEAPVIQPVNNSSHKQKTSNTHLSLETQEQIRQILSQGHKITFEHVDARRFRTGSWQSCGTLHIDAESDAISTLEACLVDYDGEYVRMVGIDPKGKRRVVETIIQRPNGKN
B2: NosRca-IFmut (NosRca V91E/R92G/G93N/L244D/N248A/L250A) (natural protein, Nostoc sp. PCC 7120, UniProt P58555 2-414, looked up)
chain: B1 chain with V90E, R91G, G92N, L243D, N247A, L249A
B3: Rubisco small subunit of Nostoc sp. PCC 7120 (natural protein, UniProt P06514 1-109, looked up)
chain: MQTLPKERRYETLSYLPPLTDVQIEKQVQYILSQGYIPAVEFNEVSEPTELYWTLWKLPLFGAKTSREVLAEVQSCRSQYPGHYIRVVGFDNIKQCQILSFIVHKPSRY
B4: NosRcaΔC (NosRca lacking the C-terminal 123 residues: linker and SSUL domain) (domain or fragment, Nostoc sp. PCC 7120, UniProt P58555 2-291, looked up)
chain: SYYIAPRFLDKLAVHITKNFLNIPGVRVPLILGIHGRKGEGKTFQCELAFEKMGIEVTLISGGELESPDAGDPARLIRLRYRETAELIKVRGKMCVLMINDLDAGAGRFDEGTQYTVNTQLVNATLMNIADNPTDVQLPGSYDSNPIRRVPIIVTGNDFSTLYAPLIRDGRMEKFYWEPNRDDKVGIVGGIFAEDGLSQREIEQLVDTFPKQSIDFFSALRSRIYDIQIRDFIHKVGFERISLRVVNSLEAPPEFKKPDFSLAHLIESGNLVLGEQQRVDNSQLVDEYNR
B5: NosRcaΔC P140G/Y143A/D144A (domain or fragment, Nostoc sp. PCC 7120, UniProt P58555 2-291, looked up)
chain: B4 chain with P139G, Y142A, D143A
B6: NosRcaΔC L244D/N248A/L250A (domain or fragment, Nostoc sp. PCC 7120, UniProt P58555 2-291, looked up)
chain: B4 chain with L243D, N247A, L249A
B7: NosRcaΔC V91E/R92G/G93N (domain or fragment, Nostoc sp. PCC 7120, UniProt P58555 2-291, looked up)
chain: B4 chain with V90E, R91G, G92N
B8: Rubisco large subunit of Nostoc sp. PCC 7120 (natural protein, UniProt P00879 1-476, looked up)
chain: MSYAQTKTQTKSGYKAGVQDYRLTYYTPDYTPKDTDILAAFRVTPQPGVPFEEAAAAVAAESSTGTWTTVWTDLLTDLDRYKGRCYDIEPVPGEDNQFIAYIAYPLDLFEEGSITNVLTSIVGNVFGFKALRALRLEDIRFPVAYIKTFQGPPHGIQVERDKLNKYGRPLLGCTIKPKLGLSAKNYGRAVYECLRGGLDFTKDDENINSAPFQRWRDRFLFVADAITKAQAETGEIKGHYLNVTAPTCEEMLKRAEYAKELKQPIIMHDYLTAGFTANTTLARWCRDNGVLLHIHRAMHAVIDRQKNHGIHFRVLAKALRLSGGDHIHTGTVVGKLEGERGITMGFVDLLRENYVEQDKSRGIYFTQDWASLPGVMAVASGGIHVWHMPALVEIFGDDSVLQFGGGTLGHPWGNAPGATANRVALEACVQARNEGRNLAREGNDVIREAAKWSPELAVACELWKEIKFEFEAMDTV

What was measured:
[1] = target: the molecule itself; assay: SEC-MALS
[2] = target: B8; assay: cryo-EM structure
[3] = target: B8; assay: cryo-EM structure; remark: listed apart in the source
[4] = target: the molecule itself; assay: cryo-EM structure

| Binder | stoichiometry N [1] | also measured |
| --- | --- | --- |
| B1 | 6 | binding result [2]: binds |
| B2 | 6 | – |
| B3 | – | binding result [3]: binds |
| B4 | 6 | – |
| B5 | 6 | – |
| B6 | 6 | – |
| B7 | 6 | – |
| B8 | – | binding result [4]: binds |
